Measured values: publication PMC7968997

Tests used:
Assay in all cases: fluorescence polarization
RRM1 analog R27A = molecular target: T1, RRM1 analog R27A (Homo sapiens, UniProt Q8IUH3 23-202, R27A;F124A;Y165A)
T1 sequence: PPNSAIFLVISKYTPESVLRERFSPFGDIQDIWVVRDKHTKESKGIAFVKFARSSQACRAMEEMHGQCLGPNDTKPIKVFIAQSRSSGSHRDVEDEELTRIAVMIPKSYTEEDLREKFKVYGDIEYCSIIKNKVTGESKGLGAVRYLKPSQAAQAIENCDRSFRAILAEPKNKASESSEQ

RRM1 analog D114A = molecular target: T2, RRM1 analog D114A (Homo sapiens, UniProt Q8IUH3 23-202, D114A;F124A;Y165A)
T2 sequence: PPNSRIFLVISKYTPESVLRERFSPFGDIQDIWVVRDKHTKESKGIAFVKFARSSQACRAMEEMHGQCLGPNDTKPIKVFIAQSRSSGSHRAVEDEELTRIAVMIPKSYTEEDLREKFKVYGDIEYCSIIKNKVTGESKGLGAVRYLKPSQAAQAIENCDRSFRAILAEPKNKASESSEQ

[1] = molecular target: T3, RBM45 RRM1-2 F124A/Y165A (RRM1 analog) (Homo sapiens, UniProt Q8IUH3 23-202, F124A;Y165A)
T3 sequence: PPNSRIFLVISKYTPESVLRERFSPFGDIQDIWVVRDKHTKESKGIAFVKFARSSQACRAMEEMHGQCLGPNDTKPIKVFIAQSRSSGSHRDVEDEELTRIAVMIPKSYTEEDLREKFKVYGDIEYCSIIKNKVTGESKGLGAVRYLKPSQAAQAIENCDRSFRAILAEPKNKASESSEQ

RRM1 analog K100A = molecular target: T4, RRM1 analog K100A (Homo sapiens, UniProt Q8IUH3 23-202, K100A;F124A;Y165A)
T4 sequence: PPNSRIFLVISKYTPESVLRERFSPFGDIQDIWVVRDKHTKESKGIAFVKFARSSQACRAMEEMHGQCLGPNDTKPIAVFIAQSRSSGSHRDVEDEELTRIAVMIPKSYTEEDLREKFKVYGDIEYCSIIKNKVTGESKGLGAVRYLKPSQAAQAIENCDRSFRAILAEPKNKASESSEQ

RRM1 analog W55A = molecular target: T5, RRM1 analog W55A (Homo sapiens, UniProt Q8IUH3 23-202, W55A;F124A;Y165A)
T5 sequence: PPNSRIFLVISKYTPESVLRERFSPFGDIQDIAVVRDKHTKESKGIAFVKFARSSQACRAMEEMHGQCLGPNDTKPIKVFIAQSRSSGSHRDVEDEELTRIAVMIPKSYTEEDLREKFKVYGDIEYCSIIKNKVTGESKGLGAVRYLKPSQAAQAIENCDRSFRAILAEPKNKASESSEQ

[2] = molecular target: T6, RBM45 RRM1-2 F29A/F70A (RRM2 analog) (Homo sapiens, UniProt Q8IUH3 23-202, F29A;F70A)
T6 sequence: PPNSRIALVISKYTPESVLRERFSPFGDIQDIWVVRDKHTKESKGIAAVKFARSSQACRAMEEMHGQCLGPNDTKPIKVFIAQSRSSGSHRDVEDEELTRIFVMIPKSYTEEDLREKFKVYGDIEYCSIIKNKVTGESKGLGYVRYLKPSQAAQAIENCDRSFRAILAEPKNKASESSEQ

RRM1 analog F70A = molecular target: T7, RRM1 analog F70A (Homo sapiens, UniProt Q8IUH3 23-202, F70A;F124A;Y165A)
T7 sequence: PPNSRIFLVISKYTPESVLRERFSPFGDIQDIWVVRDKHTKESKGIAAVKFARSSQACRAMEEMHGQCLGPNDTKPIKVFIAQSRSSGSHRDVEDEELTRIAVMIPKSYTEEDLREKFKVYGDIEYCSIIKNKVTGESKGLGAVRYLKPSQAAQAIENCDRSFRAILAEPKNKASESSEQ

RRM2 analog Y165A = molecular target: T8, RRM2 analog Y165A (Homo sapiens, UniProt Q8IUH3 23-202, F29A;F70A;Y165A)
T8 sequence: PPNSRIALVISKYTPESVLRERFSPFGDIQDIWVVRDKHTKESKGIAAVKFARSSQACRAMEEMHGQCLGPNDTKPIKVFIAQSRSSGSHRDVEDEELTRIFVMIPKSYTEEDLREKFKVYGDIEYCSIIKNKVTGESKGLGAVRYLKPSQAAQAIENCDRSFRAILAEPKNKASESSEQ

GGACGG (ssRNA) [GGACGG RNA] was tested, and the Kd (RRM1 analog R27A) was 14.4 µM, the Kd (RRM1 analog D114A) was 1.13 µM and the Kd [1] was 0.788 ± 0.092 µM. The Kd (RRM1 analog K100A) was 4.59 µM, the Kd (RRM1 analog W55A) was 3.54 µM and the Kd [2] was 1.48 ± 0.11 µM. For the same binder, the Kd (RRM1 analog F70A) was 16.8 µM and the Kd (RRM2 analog Y165A) was 20.4 µM.
